The source of these data is patent US20260166140A1, “Combinations Involving Epidermal Growth Factor Receptor Tyrosine Kinase Inhibitors For the Treatment of Cancer” (AstraZeneca AB, priority 2022, published 2026).

One assay concerns H1975 cells. Kind of assay: Internalization of AF647-labeled antibodies, live cell confocal fluorescence microscopy. In kind it is cell-based. The conditions noted are these: images every 5 min. As for the experimental part: Internalization kinetics of AlexaFluor647 (AF647) primary-labeled DuetMabs: RAA22/B09 and QD6/B09 antibodies was assessed in vitro using the EGFR and c-MET expressing cell line, H1975. Each antibody was pre-bound to cells and antibody translocation from cell surface to cytoplasm was then monitored using live cell confocal fluorescence microscopy. Both antibodies localized primarily on the cell surface before (T=0) subjecting to internalization conditions and were translocated to the cytoplasm area after 1 hour (data not shown). Kinetic images were taken every 5 min over the time course of internalization and were processed using a quantitative algorithm to determine internalization kinetic constants and half-times.
To evaluate the mode of antibody internalization and to investigate contribution of each arm to overall internalization of the DuetMabs, we evaluated internalization of single-arm specific control antibody molecules, QD6/IgG and B09/IgG, against duet QD6/B09, and RAA22/IgG and B09/IgG against duet RAA22/B09 in H1975 cells, which express both EGFR and c-MET. Since only one arm is specific for the target receptor, the control antibody can only internalize via one receptor eliminating dual receptor targeting and cross-linking as mode of internalization.

For a further assay, the target named is Mouse cMET (recombinant) (mouse, UniProt P16056 25-929, limits assumed). Kind of assay: ELISA: antigen coated at 1 ug/mL, antibody dilution series, goat anti-human Fab-HRP, A450; panel Mouse cMET.
The next assay concerns the target Human EGFR (Homo sapiens, UniProt P00533). The experiment in a line: ELISA species cross reactivity. In kind it is binding. The conditions noted are these: antibody 10 to 0.002 μg/mL. On the technique in general: ELISA stands for enzyme-linked immunosorbent assay.
In a further assay the test system is Cynomolgus monkey EGFR. The experiment in a line: ELISA species cross reactivity. In kind it is binding.
Assay [1] concerns the target T1, Human cMET (recombinant, soluble monomeric) (human, UniProt P08581 25-932).
T1 construct: in the HTRF assay it is called the human cMET receptor; also called His-tagged cMET antigen
The experiment in a line: SPR, Biacore T200, antibody captured on anti-human IgG, soluble monomeric antigen as analyte, 25 C. (SPR reads the build-up and loss of mass on a sensor chip optically.)

Assay [2] has as its target T2, Mouse EGFR (recombinant, soluble monomeric) (mouse, UniProt Q01279 25-647).
T2 construct: also called murine EGFR
Described as above.

Assay [3] deals with T3, Cynomolgus monkey EGFR (recombinant, soluble monomeric) (cynomolgus monkey, UniProt P55245 25-645 (rhesus entry)).
T3 construct: also called cyno EGFR
The description is as above.

Assay [4] concerns the target T4, Cynomolgus monkey cMET (recombinant, soluble monomeric) (cynomolgus monkey, UniProt A0M8R7 25-932 (Papio anubis entry)).
T4 construct: also called cyno cMET
The assay is described as above.

The target of assay [5] is T5, Human EGFR (recombinant, soluble monomeric) (human, UniProt P00533 25-645).
T5 construct: also called EGFR antigen
Described as above.

The next assay addresses T6, HER4 (UniProt Q15303 26-649, limits assumed).
T6 construct: also called EGFR HER family protein HER4
T6 sequence (looked up): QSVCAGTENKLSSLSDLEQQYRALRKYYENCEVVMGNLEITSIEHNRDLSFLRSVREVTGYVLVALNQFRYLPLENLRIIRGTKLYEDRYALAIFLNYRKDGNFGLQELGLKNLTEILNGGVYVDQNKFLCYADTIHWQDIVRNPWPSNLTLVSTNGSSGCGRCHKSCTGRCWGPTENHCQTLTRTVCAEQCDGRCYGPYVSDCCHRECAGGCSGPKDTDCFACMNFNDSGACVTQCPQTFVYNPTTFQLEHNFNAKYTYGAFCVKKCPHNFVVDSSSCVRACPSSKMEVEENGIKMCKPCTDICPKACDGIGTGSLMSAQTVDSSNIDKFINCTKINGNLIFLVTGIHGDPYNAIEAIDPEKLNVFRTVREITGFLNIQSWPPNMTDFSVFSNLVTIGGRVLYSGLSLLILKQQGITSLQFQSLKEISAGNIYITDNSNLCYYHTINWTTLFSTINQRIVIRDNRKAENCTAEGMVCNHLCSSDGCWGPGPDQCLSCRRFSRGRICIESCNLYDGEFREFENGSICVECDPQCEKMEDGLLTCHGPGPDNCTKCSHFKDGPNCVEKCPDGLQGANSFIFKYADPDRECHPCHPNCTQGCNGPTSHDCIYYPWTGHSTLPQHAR
The experiment in a line: ELISA: antigen coated at 1 ug/mL, antibody dilution series, goat anti-human Fab-HRP, A450; panel Human HER4.

T4 sequence (A0M8R7 25-932 S170N/I621T): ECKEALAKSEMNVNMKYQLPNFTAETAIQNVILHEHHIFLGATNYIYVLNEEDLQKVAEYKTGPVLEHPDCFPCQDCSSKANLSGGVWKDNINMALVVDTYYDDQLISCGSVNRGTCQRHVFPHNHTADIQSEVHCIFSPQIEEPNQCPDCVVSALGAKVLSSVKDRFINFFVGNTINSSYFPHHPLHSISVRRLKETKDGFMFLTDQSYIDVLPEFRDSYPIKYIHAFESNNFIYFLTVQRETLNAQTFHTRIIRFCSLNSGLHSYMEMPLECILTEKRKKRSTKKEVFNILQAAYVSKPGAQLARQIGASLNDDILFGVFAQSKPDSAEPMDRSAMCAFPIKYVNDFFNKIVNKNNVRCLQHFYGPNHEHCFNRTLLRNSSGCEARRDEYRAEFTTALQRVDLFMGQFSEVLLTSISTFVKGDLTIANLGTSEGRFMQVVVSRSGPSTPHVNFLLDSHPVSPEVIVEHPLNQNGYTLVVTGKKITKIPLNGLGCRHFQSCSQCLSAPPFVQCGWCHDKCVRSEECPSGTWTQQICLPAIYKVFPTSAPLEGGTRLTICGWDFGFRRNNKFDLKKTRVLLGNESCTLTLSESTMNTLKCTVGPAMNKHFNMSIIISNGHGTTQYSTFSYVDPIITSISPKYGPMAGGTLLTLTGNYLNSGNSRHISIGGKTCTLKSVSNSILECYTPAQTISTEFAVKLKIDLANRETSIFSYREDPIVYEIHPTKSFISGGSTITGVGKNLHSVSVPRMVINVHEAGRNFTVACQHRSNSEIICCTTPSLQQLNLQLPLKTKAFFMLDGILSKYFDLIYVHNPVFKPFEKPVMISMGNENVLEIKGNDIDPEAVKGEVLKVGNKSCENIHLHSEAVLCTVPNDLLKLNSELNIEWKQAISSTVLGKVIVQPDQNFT
T1 sequence (P08581 25-932): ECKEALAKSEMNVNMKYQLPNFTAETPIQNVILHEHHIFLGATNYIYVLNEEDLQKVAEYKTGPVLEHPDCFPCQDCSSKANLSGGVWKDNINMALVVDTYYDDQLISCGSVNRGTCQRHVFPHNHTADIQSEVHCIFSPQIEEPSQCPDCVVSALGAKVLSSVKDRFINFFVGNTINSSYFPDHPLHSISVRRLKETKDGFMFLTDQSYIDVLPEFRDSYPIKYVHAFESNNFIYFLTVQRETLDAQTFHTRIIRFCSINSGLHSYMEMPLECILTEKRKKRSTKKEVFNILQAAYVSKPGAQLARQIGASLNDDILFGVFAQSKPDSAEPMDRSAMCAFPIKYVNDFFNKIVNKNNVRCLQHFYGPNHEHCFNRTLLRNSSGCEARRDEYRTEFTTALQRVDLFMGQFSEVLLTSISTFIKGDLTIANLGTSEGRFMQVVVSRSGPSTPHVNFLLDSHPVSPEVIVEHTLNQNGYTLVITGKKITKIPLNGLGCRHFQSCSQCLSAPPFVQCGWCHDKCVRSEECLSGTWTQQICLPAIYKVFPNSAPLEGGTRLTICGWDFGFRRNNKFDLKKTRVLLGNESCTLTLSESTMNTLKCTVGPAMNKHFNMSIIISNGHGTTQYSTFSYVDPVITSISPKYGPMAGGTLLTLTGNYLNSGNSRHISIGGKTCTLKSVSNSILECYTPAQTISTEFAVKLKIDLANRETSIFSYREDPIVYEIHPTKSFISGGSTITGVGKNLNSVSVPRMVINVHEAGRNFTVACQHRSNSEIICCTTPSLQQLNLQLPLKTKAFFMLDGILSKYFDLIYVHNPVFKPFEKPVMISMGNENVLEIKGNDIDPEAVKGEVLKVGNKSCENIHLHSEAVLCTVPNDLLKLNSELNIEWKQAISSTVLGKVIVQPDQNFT
Chain of Mouse cMET (recombinant) (P16056 25-929 limits assumed): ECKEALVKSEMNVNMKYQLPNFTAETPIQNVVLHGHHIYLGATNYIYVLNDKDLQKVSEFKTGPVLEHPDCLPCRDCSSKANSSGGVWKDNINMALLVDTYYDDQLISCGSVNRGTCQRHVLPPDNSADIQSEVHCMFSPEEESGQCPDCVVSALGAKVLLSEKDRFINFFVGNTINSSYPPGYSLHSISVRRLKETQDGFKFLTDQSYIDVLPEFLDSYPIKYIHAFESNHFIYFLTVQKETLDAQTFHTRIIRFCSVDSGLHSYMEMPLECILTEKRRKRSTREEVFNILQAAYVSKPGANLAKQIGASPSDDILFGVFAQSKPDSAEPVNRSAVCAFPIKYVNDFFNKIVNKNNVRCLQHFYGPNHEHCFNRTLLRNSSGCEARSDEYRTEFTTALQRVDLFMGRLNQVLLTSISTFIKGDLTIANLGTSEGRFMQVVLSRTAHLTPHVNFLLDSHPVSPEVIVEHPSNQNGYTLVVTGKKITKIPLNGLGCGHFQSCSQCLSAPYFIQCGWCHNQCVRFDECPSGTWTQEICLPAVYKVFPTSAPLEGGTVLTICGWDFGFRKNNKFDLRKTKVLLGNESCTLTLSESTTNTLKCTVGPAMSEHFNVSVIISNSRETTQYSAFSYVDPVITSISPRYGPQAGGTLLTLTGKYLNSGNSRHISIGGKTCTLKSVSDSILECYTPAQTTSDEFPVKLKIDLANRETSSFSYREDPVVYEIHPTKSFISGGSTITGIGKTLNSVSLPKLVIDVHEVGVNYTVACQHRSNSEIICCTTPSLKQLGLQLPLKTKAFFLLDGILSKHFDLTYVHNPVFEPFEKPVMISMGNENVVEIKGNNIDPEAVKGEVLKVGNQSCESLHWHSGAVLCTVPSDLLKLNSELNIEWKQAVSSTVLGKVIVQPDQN

B1: QD6/B09-57 DuetMab (bispecific antibody, human IgG1, kappa, lambda)
heavy 1: QVQLVQSGAEVKKPGSSVKVSCKASGGTFSDNDFSWVRQAPGQGLEWMGAIVAVVRTETYAQKFQDRVKITADISTRTTYMELSSLRSEDTAVYYCARRLMSAISGPGAPLLMWGQGTLVTVSSASTKGPSVFPLAPSSKSTSGGTAALGCLVKDYFPEPVTVSWNSGALTSGVHTFPAVLQSSGLYSLSSVVTVPSSSLGTQTYICNVNHKPSNTKVDKRVEPKSCDKTHTCPPCPAPELLGGPSCVFLFPPKPKDTLMISRTPEVTCVVVDVSHEDPEVKFNWYVDGVEVHNAKTKPREEQYNSTYRVVSVLTVLHQDWLNGKEYKCKVSNKALPAPIEKTISKAKGQPREPQVCTLPPSREEMTKNQVSLSCAVKGFYPSDIAVEWESNGQPENNYKTTPPVLDSDGSFFLVSKLTVDKSRWQQGNVFSCSVMHEALHNHYTQKSLSLSPGK
heavy 2: QVQLVQSGAEVKKPGASVKVSCKASGYTFTDYYIHWVRQATGQGLEWMGWMNPNSGNTGYAQKFQGRVTMTRDTSISTAYMELSSLRSEDTAVYYCARGQGYTHSWGQGTMVTVSSASTKGPSVCPLAPSSKSTSGGTAALGCLVKDYFPEPVTVSWNSGALTSGVHTFPAVLQSSGLYSLSSVVTVPSSSLGTQTYICNVNHKPSNTKVDKRVEPKSVDKTHTCPPCPAPELLGGPSCVFLFPPKPKDTLMISRTPEVTCVVVDVSHEDPEVKFNWYVDGVEVHNAKTKPREEQYNSTYRVVSVLTVLHQDWLNGKEYKCKVSNKALPAPIEKTISKAKGQPREPQVYTLPPCREEMTKNQVSLWCLVKGFYPSDIAVEWESNGQPENNYKTTPPVLDSDGSFFLYSKLTVDKSRWQQGNVFSCSVMHEALHNHYTQKSLSLSPG
light 1: QSALTQPRSVSGSPGQSVTISCTGTSSDVGGYNYVSWYQQHPGKAPKLMIYDVSERPSGVPDRFSGSKSGNTASLTISGLQAEDEADYYCFSYTSSDTLEIFGGGTKLTVLGQPKAAPSVTLFPPSSEELQANKATLVCLISDFYPGAVTVAWKADSSPVKAGVETTTPSKQSNNKYAASSYLSLTPEQWKSHRSYSCQVTHEGSTVEKTVAPTECS
light 2: DIQMTQSPSTLSASVGDRVTITCRASEGIYHWLAWYQQKPGKAPKLLIYKASSLASGVPSRFSGSGSGTEFTLTISSLQPDDFATYYCQQYSNYPPTFGGGTKLEIKRTVAAPSVFIFPPCDEQLKSGTASVVCLLNNFYPREAKVQWKVDNALQSGNSQESVTEQDSKDSTYSLSSTLTLSKADYEKHKVYACEVTHQGLSSPVTKSFNRGEV
notes: also called monovalent bispecific EGFR/cMET DuetMAb QD6/B09
Usually Kd stands for the free concentration of one partner at which half of the binding sites on the other are occupied at equilibrium, for simple one-to-one binding. The term koff denotes the first-order rate constant of dissociation. The kon is the rate constant with which the complex forms. For B1, the internalization half-times in the assay on H1975 cells turned out to be 37.5 ± 10.6 min. For the same molecule, the binding result with Mouse cMET (recombinant) and with HER4 was “no binding (tested: 10 ug/ml)” in each case. In addition, the ELISA binding result with Human EGFR and with Cynomolgus monkey EGFR was “gave robust signals” throughout. Moreover, the Kd in assay [1] was 1.6 nM; in assay [2], 6.2 nM; in [3], 2.8 nM; in [4] it was 2.2 nM; in [5] it was 5.9 nM. For the same molecule, the koff in [1] was determined as 0.000696 s⁻¹; in assay [2], 0.00078 s⁻¹; in [3] it was 0.000585 s⁻¹; in assay [4], 0.00206 s⁻¹; in [5] it was 0.000374 s⁻¹. The kon in assay [1] was 425000 M⁻¹ s⁻¹; in assay [2] it was 126000 M⁻¹ s⁻¹; in [3], 210000 M⁻¹ s⁻¹; in [4], 958000 M⁻¹ s⁻¹; in assay [5], 63500 M⁻¹ s⁻¹.
